In publication PMC12199161, “Structural and functional studies of the main replication protein NS1 of human parvovirus B19” (Nucleic Acids Research, 2025):
Values joined by “and” are separate entries in the source; they are usually repeats but may differ in a detail not shown here. Identical values can stand only once.

Columns and labels:
NS1_2-570 [1] = biological target: T1, NS1_2-570 (Human parvovirus B19 isolate AU, UniProt P07298); test: cryo-EM structure of complex; assay type: binding; details: Mg2+ (5 mM MgCl2 in DNA complexes); Walker A site, one AMPPNP per protomer; DNA-free dodecamer; also ternary complexes with ssDNA (3.3 Å, hexamer) and dsDNA (3.43 Å, dodecamer)
T1 construct: gene NS1; residues 2-570 of 671 (Nuc, OD, SF3 HD, TAD; ZnD missing); N-terminal His-MBP tag, TEV-treated; codon-optimized cDNA; E. coli Rosetta (DE3); monomer 62 kDa; ~830 kDa oligomer by gel filtration

cryo-EM structure = biological target: the molecule itself; test: cryo-EM structure
[2] = biological target: the molecule itself; test: SEC; NS1_200-501 (WT and 3G mutant) on Superdex 200 Increase 10/30 GL
NS1_2-570 [3] = biological target: NS1_2-570 (Human parvovirus B19 (B19V), UniProt I7BP20 2-570); test: EMSA; no ATP or Mg2+ listed; details: protein: recombinant; tags: N-terminal His6-MBP, TEV protease treated; chain copies: 12; label: 5'-FAM on top strand; blunt

T1 sequence (P07298 2-570): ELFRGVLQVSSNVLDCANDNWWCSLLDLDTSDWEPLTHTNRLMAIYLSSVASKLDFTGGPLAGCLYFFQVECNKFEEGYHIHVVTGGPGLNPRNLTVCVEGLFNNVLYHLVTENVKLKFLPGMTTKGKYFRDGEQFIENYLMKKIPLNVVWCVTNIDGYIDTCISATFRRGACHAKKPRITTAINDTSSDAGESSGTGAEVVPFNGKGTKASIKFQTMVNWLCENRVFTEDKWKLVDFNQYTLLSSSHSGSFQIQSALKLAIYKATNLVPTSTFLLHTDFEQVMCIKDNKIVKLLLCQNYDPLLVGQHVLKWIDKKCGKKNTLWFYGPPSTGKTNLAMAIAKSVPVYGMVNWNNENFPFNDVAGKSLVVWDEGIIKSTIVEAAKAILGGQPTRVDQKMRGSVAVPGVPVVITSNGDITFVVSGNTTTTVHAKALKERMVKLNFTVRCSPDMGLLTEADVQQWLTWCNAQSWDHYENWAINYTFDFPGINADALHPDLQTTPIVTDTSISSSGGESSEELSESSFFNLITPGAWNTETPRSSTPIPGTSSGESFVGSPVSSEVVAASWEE

Molecule: Nc1ncnc2c1ncn2[C@@H]1O[C@H](COP(=O)(O)OP(=O)(O)NP(=O)(O)O)[C@@H](O)[C@H]1O [AMPPNP]
- AMPPNP binding site (NS1_2-570 [1]): one AMPPNP molecule is captured at the characteristic Walker A region of each NS1 protomer

B1: B19V NS1_2-570 protein (domain or fragment)
chain: ELFRGVLQVSSNVLDCANDNWWCSLLDLDTSDWEPLTHTNRLMAIYLSSVASKLDFTGGPLAGCLYFFQVECNKFEEGYHIHVVIGGPGLNPRNLTVCVEGLFNNVLYHLVTENVKLKFLPGMTTKGKYFRDGEQFIENYLMKKIPLNVVWCVTNIDGYIDTCISATFRRGACHAKKPRITTAINDTSSDAGESSGTGAEVVPFNGKGTKASIKFQTMVNWLCENRVFTEDKWKLVDFNQYTLLSSSHSGSFQIQSALKLAIFKATNLVPTSTFLLHTDFEQVMCIKDNKIVKLLLCQNYDPLLVGQHVLKWIDKKCGKKNTLWFYGPPSTGKTNLAMAIAKSVPVYGMVNWNNENFPFNDVAGKSLVVWDEGIIKSTIVEAAKAILGGQPTRVDQKMRGSVAVPGVPVVITSNGDITFVVSGNTTTTVHAKALKERMVKLNFTVRCSPDMGLLTEADVQQWLTWCNAQSWDHYENWAINYTFDFPGINADALHPDLQTTPIVTDTSISSSGGESSEELSESSFFNLITPGAWNTETPRSSTPIPGTSSGESFVGSSVSSEVVAASWEE
notes: source: E. coli Rosetta (DE3), purified (HisTrap, heparin, TEV protease, HisTrap, Superose 6 gel filtration)
- stoichiometry N (cryo-EM structure): 12 and 6

B2: NS1_200-501 protein (domain or fragment)
chain: AEVVPFNGKGTKASIKFQTMVNWLCENRVFTEDKWKLVDFNQYTLLSSSHSGSFQIQSALKLAIFKATNLVPTSTFLLHTDFEQVMCIKDNKIVKLLLCQNYDPLLVGQHVLKWIDKKCGKKNTLWFYGPPSTGKTNLAMAIAKSVPVYGMVNWNNENFPFNDVAGKSLVVWDEGIIKSTIVEAAKAILGGQPTRVDQKMRGSVAVPGVPVVITSNGDITFVVSGNTTTTVHAKALKERMVKLNFTVRCSPDMGLLTEADVQQWLTWCNAQSWDHYENWAINYTFDFPGINADALHPDLQTT
notes: source: E. coli Rosetta (DE3), purified
- stoichiometry N [2]: 12

B3: duplex DNA-1 (dsDNA)
DNA 1: AAGAAGACACCAAATCAGATGCCGCCGGTCGCCGCCGGTAGGCGGGAC
DNA 2: GTCCCGCCTACCGGCGGCGACCGGCGGCATCTGATTTGGTGTCTTCTT
- binding result (NS1_2-570 [3]): binds
